Data reported in article PMC9482650, “Quantitative fragmentomics allow affinity mapping of interactomes” (Nature Communications, 2022).

Key:
Test in all cases: holdup assay
Design in all cases: key: below the threshold = too weak to quantify, mostly under pKd 3.1 to 4
[1] = molecular target: LNX1_3, Q8TBB1
[2] = molecular target: GRASP, Q7Z6J2
[3] = molecular target: Inadl_10, Q8NI35
[4] = molecular target: T1, APBA2_2, Q99767
T1 sequence (Q99767 654-744, limits assumed, looked up): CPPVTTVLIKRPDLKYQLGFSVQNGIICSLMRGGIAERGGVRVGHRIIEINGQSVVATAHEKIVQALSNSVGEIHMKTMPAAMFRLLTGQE

[5] = molecular target: GRIP2_5, Q9C0E4
[6] = molecular target: Inadl_1, Q8NI35
[7] = molecular target: LAP2, Q96RT1
[8] = molecular target: MAGI3_2, Q5TCQ9
[9] = molecular target: DLG4_2, P78352
[10] = molecular target: HTRA1, Q92743
[11] = molecular target: DLG4_1, P78352
[12] = molecular target: FRMPD4, Q14CM0
[13] = molecular target: IL16_4, Q14005
[14] = molecular target: PDLIM1, O00151
[15] = molecular target: LNX1_2, Q8TBB1
[16] = molecular target: GRID2IP_2, A4D2P6
[17] = molecular target: Inadl_6, Q8NI35
[18] = molecular target: GORASP2, Q9H8Y8
[19] = molecular target: DLG1_2, Q12959
[20] = molecular target: T2, ARHGAP21, Q5T5U3
T2 sequence (Q5T5U3 45-169, limits assumed, looked up): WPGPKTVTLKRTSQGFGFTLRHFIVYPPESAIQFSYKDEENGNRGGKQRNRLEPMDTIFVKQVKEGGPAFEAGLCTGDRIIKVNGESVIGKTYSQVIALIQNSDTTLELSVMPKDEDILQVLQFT

[21] = molecular target: DLG4_3, P78352
[22] = molecular target: HTRA2, O43464
[23] = molecular target: IL16_1, Q14005
[24] = molecular target: T3, SHANK1, Q9Y566
T3 sequence (Q9Y566 658-767, limits assumed, looked up): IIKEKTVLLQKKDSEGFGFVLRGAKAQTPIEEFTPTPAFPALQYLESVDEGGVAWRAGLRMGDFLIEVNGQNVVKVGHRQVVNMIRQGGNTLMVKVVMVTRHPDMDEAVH

[25] = molecular target: T4, SNTB1, Q13884
T4 sequence (Q13884 107-205, limits assumed, looked up): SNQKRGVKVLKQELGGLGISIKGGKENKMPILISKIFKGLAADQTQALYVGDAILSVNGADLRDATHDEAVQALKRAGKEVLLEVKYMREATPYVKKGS

[26] = molecular target: MAGI2_5, Q86UL8
[27] = molecular target: MAGI2_4, Q86UL8
[28] = molecular target: GIPC2, Q8TF65
[29] = molecular target: MAST1, Q9Y2H9
[30] = molecular target: T5, PDZD2_2, O15018
T5 sequence (O15018 329-429, limits assumed, looked up): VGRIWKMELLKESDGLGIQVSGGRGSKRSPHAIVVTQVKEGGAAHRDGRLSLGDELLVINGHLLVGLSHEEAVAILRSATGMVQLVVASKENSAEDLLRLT

[31] = molecular target: MAST2, Q6P0Q8
[32] = molecular target: DLG2_3, Q15700
[33] = molecular target: T6, RADIL, Q96JH8
T6 sequence (Q96JH8 971-1071, limits assumed, looked up): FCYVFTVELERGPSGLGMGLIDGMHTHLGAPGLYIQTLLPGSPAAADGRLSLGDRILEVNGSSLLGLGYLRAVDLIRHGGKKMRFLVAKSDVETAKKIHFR

[34] = plain residues with an end cap or a label only (N-terminal biotin on a linker: ado-ado)
[35] = plain residues with an end cap or a label only (N-terminal biotin on a linker: ahx)

Sequence of MAGI2_4, Q86UL8 (Q86UL8 772-865): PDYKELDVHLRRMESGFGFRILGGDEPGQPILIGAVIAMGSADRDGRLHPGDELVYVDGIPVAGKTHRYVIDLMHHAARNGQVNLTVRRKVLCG
Sequence of MAST1, Q9Y2H9 (Q9Y2H9 962-1065): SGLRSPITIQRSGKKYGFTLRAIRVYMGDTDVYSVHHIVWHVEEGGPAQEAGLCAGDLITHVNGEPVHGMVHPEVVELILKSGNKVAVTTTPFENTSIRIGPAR
Sequence of FRMPD4, Q14CM0 (Q14CM0 67-160): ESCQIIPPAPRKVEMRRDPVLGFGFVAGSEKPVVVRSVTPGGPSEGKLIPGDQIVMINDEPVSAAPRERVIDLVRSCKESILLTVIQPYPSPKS
Sequence of GRID2IP_2, A4D2P6 (A4D2P6 272-370): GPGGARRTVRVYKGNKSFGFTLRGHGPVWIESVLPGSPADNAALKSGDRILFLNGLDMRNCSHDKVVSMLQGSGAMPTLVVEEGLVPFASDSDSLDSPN
Sequence of DLG4_3, P78352 (P78352 306-403): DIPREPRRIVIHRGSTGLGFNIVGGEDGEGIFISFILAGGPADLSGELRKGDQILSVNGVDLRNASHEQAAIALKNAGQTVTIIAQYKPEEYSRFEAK
Sequence of HTRA1, Q92743 (Q92743 360-477): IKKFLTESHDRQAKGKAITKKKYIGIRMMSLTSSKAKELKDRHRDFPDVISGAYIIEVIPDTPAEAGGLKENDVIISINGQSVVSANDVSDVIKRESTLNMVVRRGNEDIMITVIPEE
Sequence of LNX1_3, Q8TBB1 (Q8TBB1 500-596): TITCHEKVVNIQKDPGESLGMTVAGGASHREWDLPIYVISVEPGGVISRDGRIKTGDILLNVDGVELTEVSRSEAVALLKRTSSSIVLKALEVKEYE
Sequence of MAST2, Q6P0Q8 (Q6P0Q8 1099-1202): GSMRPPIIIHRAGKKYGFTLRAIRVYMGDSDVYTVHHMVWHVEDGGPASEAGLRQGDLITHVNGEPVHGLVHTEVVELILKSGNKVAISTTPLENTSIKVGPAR
Sequence of GRIP2_5, Q9C0E4 (Q9C0E4 544-642): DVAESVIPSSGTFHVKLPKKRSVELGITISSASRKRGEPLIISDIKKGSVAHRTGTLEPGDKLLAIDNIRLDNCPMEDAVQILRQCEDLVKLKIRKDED
Sequence of LAP2, Q96RT1 (Q96RT1 other isoform, or with tags, fused parts or gaps): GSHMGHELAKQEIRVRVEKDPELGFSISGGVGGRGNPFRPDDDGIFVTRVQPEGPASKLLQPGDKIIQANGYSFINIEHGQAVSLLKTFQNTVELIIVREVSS
Sequence of IL16_4, Q14005 (Q14005 1229-1329): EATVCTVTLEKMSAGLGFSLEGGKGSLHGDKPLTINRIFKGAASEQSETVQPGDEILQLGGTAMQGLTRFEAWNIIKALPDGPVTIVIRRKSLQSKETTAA
Sequence of Inadl_1, Q8NI35 (Q8NI35 113-229): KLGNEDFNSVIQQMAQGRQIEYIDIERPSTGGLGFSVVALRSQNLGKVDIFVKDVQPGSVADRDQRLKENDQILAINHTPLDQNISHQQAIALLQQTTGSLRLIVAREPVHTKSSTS
Sequence of GIPC2, Q8TF65 (Q8TF65 112-203): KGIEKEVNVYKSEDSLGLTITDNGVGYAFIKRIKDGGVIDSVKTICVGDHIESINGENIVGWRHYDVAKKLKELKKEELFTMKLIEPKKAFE
Sequence of IL16_1, Q14005 (Q14005 210-306): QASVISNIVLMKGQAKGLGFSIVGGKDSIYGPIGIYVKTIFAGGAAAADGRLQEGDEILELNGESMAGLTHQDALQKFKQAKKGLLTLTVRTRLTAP
Sequence of DLG4_2, P78352 (P78352 155-259): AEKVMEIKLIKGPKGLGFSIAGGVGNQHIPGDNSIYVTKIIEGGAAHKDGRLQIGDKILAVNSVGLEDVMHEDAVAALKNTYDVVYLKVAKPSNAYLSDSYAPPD
Sequence of DLG1_2, Q12959 (Q12959 314-412): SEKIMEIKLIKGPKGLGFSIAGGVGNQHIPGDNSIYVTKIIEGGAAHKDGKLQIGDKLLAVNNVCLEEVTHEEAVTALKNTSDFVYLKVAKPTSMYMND
Sequence of GRASP, Q7Z6J2 (Q7Z6J2 96-193): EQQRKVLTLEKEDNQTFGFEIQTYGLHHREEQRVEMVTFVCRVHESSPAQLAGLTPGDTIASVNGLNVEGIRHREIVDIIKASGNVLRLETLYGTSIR
Sequence of HTRA2, O43464 (O43464 355-458): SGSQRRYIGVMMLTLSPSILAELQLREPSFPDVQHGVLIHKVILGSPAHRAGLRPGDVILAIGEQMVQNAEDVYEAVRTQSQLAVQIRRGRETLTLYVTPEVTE
Sequence of Inadl_6, Q8NI35 (Q8NI35 1058-1167): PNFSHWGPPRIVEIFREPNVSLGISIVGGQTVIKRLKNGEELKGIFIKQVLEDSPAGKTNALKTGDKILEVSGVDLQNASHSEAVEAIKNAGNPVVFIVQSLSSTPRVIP
Sequence of Inadl_10, Q8NI35 (Q8NI35 1673-1763): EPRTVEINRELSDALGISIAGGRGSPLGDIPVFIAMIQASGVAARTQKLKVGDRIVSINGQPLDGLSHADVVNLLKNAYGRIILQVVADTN
Sequence of LNX1_2, Q8TBB1 (Q8TBB1 371-470): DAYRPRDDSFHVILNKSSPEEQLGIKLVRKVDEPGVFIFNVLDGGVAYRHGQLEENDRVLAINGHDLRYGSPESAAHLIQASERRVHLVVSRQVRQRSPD
Sequence of PDLIM1, O00151 (O00151 1-87): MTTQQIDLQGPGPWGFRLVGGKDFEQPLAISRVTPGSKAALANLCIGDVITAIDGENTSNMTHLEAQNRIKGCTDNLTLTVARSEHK
Sequence of DLG4_1, P78352 (P78352 62-152): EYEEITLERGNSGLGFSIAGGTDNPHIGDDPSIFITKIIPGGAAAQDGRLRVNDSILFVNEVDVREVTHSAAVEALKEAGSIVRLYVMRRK
Sequence of MAGI3_2, Q5TCQ9 (Q5TCQ9 398-503): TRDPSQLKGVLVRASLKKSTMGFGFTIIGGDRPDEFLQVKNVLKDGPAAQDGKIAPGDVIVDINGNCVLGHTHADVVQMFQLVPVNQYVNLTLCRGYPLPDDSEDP
Sequence of MAGI2_5, Q86UL8 (Q86UL8 915-1017): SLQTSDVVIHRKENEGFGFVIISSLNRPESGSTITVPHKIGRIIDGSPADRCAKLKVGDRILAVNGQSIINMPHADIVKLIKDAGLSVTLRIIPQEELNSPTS

Q: NTANRRTTPV [CACNG2, Q9Y698] was tested. Which pKd [1, 34] did it give?
A: Its pKd is “below the threshold”.

Q: And the pKd [2, 34]?
A: Its pKd is 4.18.

Q: And the pKd [3, 34]?
A: Its pKd is “below the threshold”.

Q: What about the pKd [4, 34] of the same binder?
A: The pKd was “below the threshold”.

Q: And the pKd [5, 34]?
A: Its pKd is “below the threshold”.

Q: And the pKd [6, 34]?
A: The pKd was “below the threshold”.

Q: And the pKd [7, 34]?
A: The pKd was “below the threshold”.

Q: And the pKd [8, 34]?
A: Its pKd is 5.16.

Q: And the pKd [9, 34]?
A: The pKd was 4.89.

Q: And the pKd [10, 34]?
A: Its pKd is “below the threshold”.

Q: And the pKd [11, 34]?
A: The pKd was 4.5.

Q: And the pKd [12, 34]?
A: Its pKd is “below the threshold”.

Q: What about the pKd [13, 34] of the same binder?
A: The pKd was “below the threshold”.

Q: What about the pKd [14, 34] of the same binder?
A: Its pKd is “below the threshold”.

Q: What about the pKd [15, 34] of the same binder?
A: Its pKd is “below the threshold”.

Q: What about the pKd [16, 34] of the same binder?
A: Its pKd is 3.89.

Q: And the pKd [17, 34]?
A: The pKd was “below the threshold”.

Q: And the pKd [18, 34]?
A: Its pKd is “below the threshold”.

Q: What about the pKd [19, 34] of the same binder?
A: Its pKd is 5.01.

Q: And the pKd [20, 34]?
A: The pKd was 3.86.

Q: What about the pKd [21, 34] of the same binder?
A: The pKd was 4.69.

Q: What about the pKd [22, 34] of the same binder?
A: The pKd was “below the threshold”.

Q: What about the pKd [23, 34] of the same binder?
A: Its pKd is “below the threshold”.

Q: What about the pKd [24, 34] of the same binder?
A: The pKd was “below the threshold”.

Q: What about the pKd [25, 34] of the same binder?
A: The pKd was 4.23.

Q: And the pKd [26, 34]?
A: The pKd was “below the threshold”.

Q: What about the pKd [27, 34] of the same binder?
A: Its pKd is “below the threshold”.

Q: What about the pKd [28, 34] of the same binder?
A: The pKd was “below the threshold”.

Q: And the pKd [29, 34]?
A: The pKd was “below the threshold”.

Q: And the pKd [30, 34]?
A: Its pKd is 3.66.

Q: What about the pKd [31, 34] of the same binder?
A: Its pKd is 4.52.

Q: What about the pKd [32, 34] of the same binder?
A: The pKd was 4.82.

Q: And the pKd [33, 34]?
A: The pKd was “below the threshold”.

Q: What does the source list for TQKFRASTAL [FRMPD1, Q5SYB0]?
A: pKd [1, 35]: below the threshold; pKd [2, 35]: 4.56; pKd [3, 35]: 3.61; pKd [4, 35]: below the threshold; pKd [5, 35]: below the threshold; pKd [6, 35]: below the threshold; pKd [7, 35]: below the threshold; pKd [8, 35]: 4.28; pKd [9, 35]: 3.55; pKd [10, 35]: below the threshold; pKd [11, 35]: 3.48; pKd [12, 35]: 3.73; pKd [13, 35]: below the threshold; pKd [14, 35]: below the threshold; pKd [15, 35]: below the threshold; pKd [16, 35]: 4.18; pKd [17, 35]: below the threshold; pKd [18, 35]: below the threshold; pKd [19, 35]: 3.62; pKd [20, 35]: below the threshold; pKd [21, 35]: 3.78; pKd [22, 35]: below the threshold; pKd [23, 35]: below the threshold; pKd [24, 35]: 4.62; pKd [25, 35]: below the threshold; pKd [26, 35]: 3.59; pKd [27, 35]: 3.48; pKd [28, 35]: below the threshold; pKd [29, 35]: 4.44; pKd [30, 35]: below the threshold; pKd [31, 35]: 5.36; pKd [32, 35]: below the threshold; pKd [33, 35]: below the threshold

Q: What does the source list for NTLNRKTTPV [CACNG8, Q8WXS5]?
A: pKd [1, 34]: below the threshold; pKd [2, 34]: 4.22; pKd [3, 34]: below the threshold; pKd [4, 34]: below the threshold; pKd [5, 34]: 3.54; pKd [6, 34]: below the threshold; pKd [7, 34]: below the threshold; pKd [8, 34]: 5.05; pKd [9, 34]: 4.94; pKd [10, 34]: below the threshold; pKd [11, 34]: 4.4; pKd [12, 34]: below the threshold; pKd [13, 34]: 3.59; pKd [14, 34]: below the threshold; pKd [15, 34]: below the threshold; pKd [16, 34]: 3.94; pKd [17, 34]: below the threshold; pKd [18, 34]: below the threshold; pKd [19, 34]: 5.05; pKd [20, 34]: 3.86; pKd [21, 34]: 4.89; pKd [22, 34]: below the threshold; pKd [23, 34]: below the threshold; pKd [24, 34]: below the threshold; pKd [25, 34]: 4.07; pKd [26, 34]: below the threshold; pKd [27, 34]: 3.69; pKd [28, 34]: below the threshold; pKd [29, 34]: 4.17; pKd [30, 34]: 3.81; pKd [31, 34]: 4.83; pKd [32, 34]: 4.9; pKd [33, 34]: below the threshold
